Here are results for one molecule from patent US20180037644A1 (Pfizer, published 2018).

Usually Kd stands for a measure of binding affinity in units of concentration. One may read the koff as the first-order rate constant of dissociation. A word on the kon: it is a measure of how fast the partners come together.

The target of assay [1] is T1, human IL-33 (mm2) (human, UniProt O95760 112-270).
T1 construct: Variant in which all four cysteine residues are serine; the entry carries an N-terminal Met and a C-terminal His6; Biotinylated in some assays; also called hIL-33 (mm2); huIL-33 (mm2)
T1 chain: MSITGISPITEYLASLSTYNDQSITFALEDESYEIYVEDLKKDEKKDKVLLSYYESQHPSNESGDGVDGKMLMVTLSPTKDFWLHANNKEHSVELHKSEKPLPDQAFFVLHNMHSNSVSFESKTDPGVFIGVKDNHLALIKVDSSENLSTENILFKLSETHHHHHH
As to the kind of experiment: SPR, Fab captured by anti-human Fab kit, IL-33 in solution. The protocol: (§1) Fab fragment affinity was measured by two methods, surface plasmon resonance using a BIAcore instrument, with either Fab or IL-33 captured on the chip, and solution equilibrium affinity measurements using a KinExA instrument, with both Fab and IL-33 in solution.
(§2) Surface plasmon resonance experiments were conducted in two formats.
In general terms: In SPR one partner is held on a chip, and binding of the other changes the refractive index at the surface.

The target of assay [2] is T1, human IL-33 (mm2). As to the kind of experiment: SPR, IL-33 amine-coupled to CM5, Fab in solution, 37 C. Here is the method:
(§3) Biacore kinetic assays were conducted at 37° C. at a collection rate of 1 Hz on a Biacore T200 instrument (GE Healthcare). Human IL33 (mm2), cynomolgus monkey IL-33, and reduced huIL33 wt were covalently coupled to a CM5 sensor chip (catalogue number BR100530, GE Healthcare) using an amine coupling kit (catalogue number BR100050, GE Healthcare) according to the manufacturer's protocol. […] The dilution and running buffer was HBS-EP+(10 mM HEPES pH 7.4, 0.15M NaCl, 3 mM EDTA, 0.05% P-20). Rate constants and affinities were determined by fitting the resulting sensorgram data to a 1:1 model in Biacore T200 Evaluation software version 1.0 (GE Healthcare).

In assay [3] the target is T2, human IL-33 WT, reduced with DTT (human, UniProt O95760 112-270).
T2 construct: Wild-type cysteines, FLAG tag in the entry; reduced with 3 mM DTT before use; also called huIL33 wt; hu IL-33 (WT + DTT)
T2 sequence: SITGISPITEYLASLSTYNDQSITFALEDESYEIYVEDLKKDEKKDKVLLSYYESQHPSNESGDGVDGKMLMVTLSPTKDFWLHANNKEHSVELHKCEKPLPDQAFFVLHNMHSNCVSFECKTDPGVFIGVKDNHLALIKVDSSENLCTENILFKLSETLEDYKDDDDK
Described as above. The protocol: as §3

The target of assay [4] is T3, cynomolgus monkey IL-33 (cys mut) (cynomolgus monkey).
T3 construct: Variant in which the three cysteine residues are serine; N-terminal Met and C-terminal His6 in the entry; also called cyno IL-33; cyno IL-33 (cys mut)
T3 chain: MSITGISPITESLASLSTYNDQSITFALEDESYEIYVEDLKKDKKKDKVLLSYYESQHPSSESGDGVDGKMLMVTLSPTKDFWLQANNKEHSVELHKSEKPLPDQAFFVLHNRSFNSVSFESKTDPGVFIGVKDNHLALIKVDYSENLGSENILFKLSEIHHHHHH
Described as above. The protocol:
as §3

Assay [5] addresses T1, human IL-33 (mm2). As to the kind of experiment: SPR, biotinylated IL-33 on streptavidin sensor, Fab in solution. The protocol: as §1, §2

B1: 7E8 CDR graft Fab (Fab, V domains shown)
VH: EVQLVESGGGLVQPGGSLRLSCAASGFTFSSYWMYWVRQAPGKGLEWVASITPNGGNTYYPDSVKGRFTISRDNAKNSLYLQMNSLRAEDTAVYYCARGHYYYTSYSLGYWGQGTLVTVSS
VL: DIQMTQSPSSLSASVGDRVTITCKASQNINKHLDWYQQKPGKAPKLLIYFTNNLQTGVPSRFSGSGSGTDFTLTISSLQPEDFATYYCFQYNNGWTFGGGTKVEIKR
notes: also called 7E8 Fab; CDR grafted-7E8 Fab
On to B1, for which the Kd was 0.249 nM in assay [1]; 0.0155 nM in assay [2]; 0.0191 nM in assay [3]; 0.0144 nM in assay [4]; 0.00306 nM in assay [5]. For the same molecule, the koff was 0.000301 s⁻¹ in assay [1]; 4.17e-05 s⁻¹ in assay [2]; 5.79e-05 s⁻¹ in assay [3]; 4.07e-05 s⁻¹ in assay [4]; 1.68e-05 s⁻¹ in assay [5]. Moreover, the kon in assay [1] worked out at 1.38e+06 M⁻¹ s⁻¹; in assay [2], 2.74e+06 M⁻¹ s⁻¹; in assay [3] it was 3.05e+06 M⁻¹ s⁻¹; in assay [4] it was 2.81e+06 M⁻¹ s⁻¹.
